Target: T1, endogenous FLT3 on the plasma membranes of THP-1 or NOMO-1 cells (UniProt P36888 27-993, limits assumed)
T1 construct: whole, on cells
T1 sequence (looked up): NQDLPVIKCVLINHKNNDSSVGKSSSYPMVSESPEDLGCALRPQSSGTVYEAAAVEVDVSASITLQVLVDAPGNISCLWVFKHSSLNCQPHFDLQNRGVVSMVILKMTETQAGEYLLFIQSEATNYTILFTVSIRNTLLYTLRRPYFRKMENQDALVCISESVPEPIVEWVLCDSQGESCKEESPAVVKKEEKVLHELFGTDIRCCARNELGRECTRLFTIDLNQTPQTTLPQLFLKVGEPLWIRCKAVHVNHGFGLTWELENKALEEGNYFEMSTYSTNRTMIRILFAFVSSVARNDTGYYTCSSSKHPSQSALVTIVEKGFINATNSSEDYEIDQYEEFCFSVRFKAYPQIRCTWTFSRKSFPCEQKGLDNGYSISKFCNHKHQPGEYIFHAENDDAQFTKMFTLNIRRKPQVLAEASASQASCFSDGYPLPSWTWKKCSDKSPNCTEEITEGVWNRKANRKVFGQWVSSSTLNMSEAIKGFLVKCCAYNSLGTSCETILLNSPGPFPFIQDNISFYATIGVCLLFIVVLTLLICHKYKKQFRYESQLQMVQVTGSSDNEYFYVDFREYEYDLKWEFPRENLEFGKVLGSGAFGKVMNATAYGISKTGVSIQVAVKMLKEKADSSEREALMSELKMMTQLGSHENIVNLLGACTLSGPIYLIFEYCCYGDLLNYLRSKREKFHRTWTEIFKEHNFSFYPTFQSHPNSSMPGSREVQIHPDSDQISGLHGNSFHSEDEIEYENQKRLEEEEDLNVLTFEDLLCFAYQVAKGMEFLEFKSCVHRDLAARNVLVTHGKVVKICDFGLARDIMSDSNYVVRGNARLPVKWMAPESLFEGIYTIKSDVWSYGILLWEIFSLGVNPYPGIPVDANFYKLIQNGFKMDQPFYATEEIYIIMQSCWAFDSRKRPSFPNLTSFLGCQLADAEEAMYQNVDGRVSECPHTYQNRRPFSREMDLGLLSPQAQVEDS
Test: interaction and colocalization in THP-1 or NOMO-1 cells (method not detailed)

binding result: binds
B1: SCUBE1 on the cell surface of leukemia cells (THP-1, NOMO-1 and other lines) (other, human, UniProt Q8IWY4 24-988, looked up)
chain: GGSGLPGSVDVDECSEGTDDCHIDAICQNTPKSYKCLCKPGYKGEGKQCEDIDECENDYYNGGCVHECINIPGNYRCTCFDGFMLAHDGHNCLDVDECQDNNGGCQQICVNAMGSYECQCHSGFFLSDNQHTCIHRSNEGMNCMNKDHGCAHICRETPKGGVACDCRPGFDLAQNQKDCTLTCNYGNGGCQHSCEDTDTGPTCGCHQKYALHSDGRTCIETCAVNNGGCDRTCKDTATGVRCSCPVGFTLQPDGKTCKDINECLVNNGGCDHFCRNTVGSFECGCRKGYKLLTDERTCQDIDECSFERTCDHICINSPGSFQCLCHRGYILYGTTHCGDVDECSMSNGSCDQGCVNTKGSYECVCPPGRRLHWNGKDCVETGKCLSRAKTSPRAQLSCSKAGGVESCFLSCPAHTLFVPDSENSYVLSCGVPGPQGKALQKRNGTSSGLGPSCSDAPTTPIKQKARFKIRDAKCHLRPHSQARAKETARQPLLDHCHVTFVTLKCDSSKKRRRGRKSPSKEVSHITAEFEIETKMEEASDTCEADCLRKRAEQSLQAAIKTLRKSIGRQQFYVQVSGTEYEVAQRPAKALEGQGACGAGQVLQDSKCVACGPGTHFGGELGQCVSCMPGTYQDMEGQLSCTPCPSSDGLGLPGARNVSECGGQCSPGFFSADGFKPCQACPVGTYQPEPGRTGCFPCGGGLLTKHEGTTSFQDCEAKVHCSPGHHYNTTTHRCIRCPVGTYQPEFGQNHCITCPGNTSTDFDGSTNVTHCKNQHCGGELGDYTGYIESPNYPGDYPANAECVWHIAPPPKRRILIVVPEIFLPIEDECGDVLVMRKSASPTSITTYETCQTYERPIAFTSRSRKLWIQFKSNEGNSGKGFQVPYVTYDEDYQQLIEDIVRDGRLYASENHQEILKDKKLIKALFDVLAHPQNYFKYTAQESKEMFPRSFIKLLRSKVSRFLRPYK
notes: whole, on cells; Endogenous protein; in western blots it was in cell lysate; also called surface SCUBE1; membrane SCUBE1
